# Measured values as given in publication doi:10.1101/2020.10.15.341636 (bioRxiv, 2020).
# Tests used:
# [1] = biological target: T1, SARS-CoV-2 wild type RBD (BEI NR52309) (Severe acute respiratory syndrome …, UniProt P0DTC2); assay: BLI
# [2] = biological target: T1, SARS-CoV-2 wild type RBD (BEI NR52309); assay: crystal structure
Binder,binding result [1],binding result [2]
"mAb 298 IgG (antibody, V domains shown) VH: QVQLVQSGAEVKKPGASVKVSCKASGGTFSTYGISWVRQAPGQGLEWMGWISPNSGGTDLAQKFQGRVTMTRDTSTSTVYMELSSLRSEDTAVYYCASDPRDDIAGGYWGQGTLVTVSS VL: not shown",binds,
"Fab 298 (Fab, V domains shown) VH: QVQLVQSGAEVKKPGASVKVSCKASGGTFSTYGISWVRQAPGQGLEWMGWISPNSGGTDLAQKFQGRVTMTRDTSTSTVYMELSSLRSEDTAVYYCASDPRDDIAGGYWGQGTLVTVSS VL: not shown",,binds
"mAb 52 IgG (antibody, V domains shown) VH: QVQLVQSGAEVKKPGSSVKVSCKASGYTFTSYGISWVRQAPGQGLEWMGGIIPMFGTTNYAQKFQGRVTITADKSTSTAYMELSSLRSEDTAVYYCARDRGDTIDYWGQGTLVTVSS VL: DIQMTQSPSSLSASVGDRVTITCRASQGISNNLNWYQQKPGKAPKLLIYAASSLESGVPSRFSGSGSGTDFTLTISSLQPEDFATYYCQQGNGFPLTFGPGTKVDIK",binds,
"Fab 52 (Fab, V domains shown) VH: QVQLVQSGAEVKKPGSSVKVSCKASGYTFTSYGISWVRQAPGQGLEWMGGIIPMFGTTNYAQKFQGRVTITADKSTSTAYMELSSLRSEDTAVYYCARDRGDTIDYWGQGTLVTVSS VL: DIQMTQSPSSLSASVGDRVTITCRASQGISNNLNWYQQKPGKAPKLLIYAASSLESGVPSRFSGSGSGTDFTLTISSLQPEDFATYYCQQGNGFPLTFGPGTKVDIK",,binds
"mAb 236 IgG (antibody, V domains shown) VH: QVQLVQSGAEVKKPGASVKVSCKASGGTFTSYGINWVRQAPGQGLEWMGWMNPNSGNTGYAQKFQGRVTMTRDTSTSTVYMELSSLRSEDTAVYYCASRGIQLLPRGMDVWGQGTTVTVSS VL: not shown",binds,
"mAb 324 IgG (antibody, V domains shown) VH: QVQLVQSGAEVKKPGASVKVSCKASGGTFNNYGISWVRQAPGQGLEWMGWMNPNSGNTGYAQKFQGRVTMTRDTSTSTVYMELSSLRSEDTAVYYCARVGDYGDYIVSPFDLWGRGTLVTVSS VL: DIQMTQSPSSLSASVGDRVTITCRASQSITTYLNWYQQKPGKAPKLLIYDASNLETGVPSRFSGSGSGTDFTLTISSLQPEDFATYYCQQSYSTPPTFGQGTKVEIK",binds,
